Measured values as given in publication PMC2746243.

Target: mutant M9R α-tropomyosin_(slow) (human) (UniProt P06753)
Experiment: far-Western, overlay or dot blot

Chain of UniProt P06753 (P06753 whole entry M9R): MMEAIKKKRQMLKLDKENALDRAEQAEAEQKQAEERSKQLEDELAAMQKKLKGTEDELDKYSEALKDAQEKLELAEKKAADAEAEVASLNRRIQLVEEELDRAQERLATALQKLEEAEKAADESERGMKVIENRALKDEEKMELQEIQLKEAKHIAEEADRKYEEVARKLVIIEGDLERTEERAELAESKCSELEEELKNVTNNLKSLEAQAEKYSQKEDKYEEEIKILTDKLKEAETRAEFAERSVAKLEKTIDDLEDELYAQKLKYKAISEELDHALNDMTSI

Recombinant human Tmod1 protein (from UniProt P28289 1-359) (natural protein)
percent of the binding to wild-type α-tropomyosin (slow): 10%
